Assay results published in patent US20040241222A1, “Lipid-polymer-conjugates compositions” (priority 2001, published 2004).

Columns and labels:
[1] = Kinetics of 3H-labelled liposomes containing lipid-polymer-conjugates after a single intravenous injection to the rat (blood circulation time); assay type: in vivo; conditions: intravenous administration to rats, compared with corresponding PEG-grafted liposomes
Procedure: 100 μl was transferred to a scintillation vial (20 ml).
100 μl of Solvable was added. This was incubated for at least 1 hour.
100 μl of 1 mM EDTA and 200 μl H2O2 30% were added. This mixture was incubated for 24 hours at room temperature and overnight at 50° C. thereafter.
Ultima Gold (10 ml) was added as the scintillation fluid.
Radioactivity was measured by LSC.
The increase of blood circulation time was assessed, wherein: […]

[2] = Storage stability of liposomal preparations (percentage encapsulated prednisolone phosphate versus time); assay type: physicochemical; conditions: prednisolone phosphate-containing liposome suspensions, nitrogen atmosphere, 4° C. (FIG. 3)
From the text: FIG. 3 is a graphical representation of the percentage encapsulated prednisolone phosphate in PEG-DSPE and PHEA-DODASuc, respectively, containing liposomal preparations versus time (example 26).

[3] = Particle size and polydispersity of liposomes by dynamic light scattering; assay type: physicochemical; conditions: prednisolone phosphate-containing DPPC/cholesterol liposomes, light scattering (Malvern Zeta-sizer)
Procedure: The lipid loss during preparation of the liposomes was 25%, determined by comparing the final radioactivity of the preparation with the activity before the extrusion procedure. The suspension of liposomes was stored in a nitrogen atmosphere at 4° C.
Liposomes were prepared using the film method, as described in example 23. Instead of egg phosphatidylcholine dipalmitoyl phosphatidylcholine was used. 5 mM HEPES buffer was added to the dry lipid film and shaken during 5 minutes in the presence of glass beads in order to enable complete hydration of the lipid film. The liposomes were sized by extrusion 12 times through 2 stacked PC membranes having pore sizes of […]. The resulting liposome dispersions were dialysed (MWCO 10,000) and average particle sizes were determined using dynamic light scattering technique. See table 1 for the properties of the liposomal preparations.

[4] = Encapsulation efficiency of prednisolone phosphate in liposomes (HPLC); assay type: physicochemical; conditions: prednisolone phosphate-containing DPPC/cholesterol liposomes

PHEG-Diaminobutane DODASuc [Ex. 8.1]
Blood circulation time of the liposomes [1]: Results similar to those obtained with the corresponding PEG-grafted liposomes

Poly(D,L-methionine Sulfoxide) DODASuc [Ex. 18]
Blood circulation time of the liposomes [1]: Results similar to those obtained with the corresponding PEG-grafted liposomes

Poly(2-hydroxyethyl)-L-asparagine DODASuc [Ex. 14]
Blood circulation time of the liposomes [1]: Results similar to those obtained with the corresponding PEG-grafted liposomes | Storage stability compared with PEG-DSPE reference liposomes [2]: performed slightly better

PEG-distearoylphosphatidylethanol-amine [PEG-DSPE]
Mean particle size [3]: ~90 nm | Encapsulation efficiency of the prednisolone phosphate [4]: 2.6%
